B1: aEP3B2 (VHH)
VHH: QVQLLESGGGLVQPGGSLRLSCAASGDRVSYKFMAWVRQAPGKGLEWVSSIRGNDGSTYYADSVKGRFTISRDNSKNTLYLQMNSLRAEDTAVYYCARKGKRHYELPYWGQGTLVTVSS
notes: fully human VH single-domain antibody from a phage library (Source BioScience); Human VH-only sdAb (not camelid), not Fc-fused; cloned into pET-22b by Not I and Nco I sites; also called anti-EpCAM sdAb aEP3B2; source: E. coli BL21 (DE3), purified (Ni-NTA)
B2: aEP4G2 (VHH)
VHH: QVQLLESGGGLVQPGGSLRLSCAASGFTFSYNNMAWVRQAPGKGLEWVSAIEGKDGSTYYADSVKGRFTISRDNSKNTLYLQMNSLRAEDTAVYYCARRKGRTEKLSYWGQGTLVTVSS
notes: fully human VH single-domain antibody from a phage library (Source BioScience); Human VH-only sdAb (not camelid), not Fc-fused; cloned into pET-22b by Not I and Nco I sites; also called anti-EpCAM sdAb aEP4G2; source: E. coli BL21 (DE3), purified (Ni-NTA)
B3: aEP4D11 (VHH)
VHH: QVQLLESGGGLVQPGGSLRLSCAASGVKIIPKSMAWVRQAPGKGLEWVSTIETADGSTYYADSVKGRFTISRDNSKNTLYLQMNSLRAEDTAVYYCASVSRSRTNSLKSWGQGTLVTVSS
notes: fully human VH single-domain antibody from a phage library (Source BioScience); Human VH-only sdAb (not camelid), not Fc-fused; cloned into pET-22b by Not I and Nco I sites; also called anti-EpCAM sdAb aEP4D11; source: E. coli BL21 (DE3), purified (Ni-NTA)
B4: aEP3D4 (VHH)
VHH: QVQLLESGGGLVQPGGSLRLSCAASGVKFSNHDMTWVRQAPGKGLEWVSAINSGGGSTYYADSVKGRFTISRDNSKNTLYLQMNSLRAEDTAVYYCARMGRQARVPHHMRFWGQGTLVTVSS
notes: fully human VH single-domain antibody from a phage library (Source BioScience); Human VH-only sdAb (not camelid), not Fc-fused; cloned into pET-22b by Not I and Nco I sites; also called anti-EpCAM sdAb aEP3D4; source: E. coli BL21 (DE3), purified (Ni-NTA)
B5: aEP5A5 (VHH)
VHH: QVQLLESGGGLVQPGGSLRLSCAASGVRFSNEVMAWVRQAPGKGLEWVSGIEMKNGSTYYADSVKGRFTISRDNSKNTLYLQMNSLRAEDTAVYYCASWGHSRRQQSKFNSWGQGTLVTVSS
notes: fully human VH single-domain antibody from a phage library (Source BioScience); Human VH-only sdAb (not camelid), not Fc-fused; cloned into pET-22b by Not I and Nco I sites; also called anti-EpCAM sdAb aEP5A5; source: E. coli BL21 (DE3), purified (Ni-NTA)

These binders were tested against T1, EpCAM complete extracellular domain protein (Homo sapiens (assumed), UniProt P16422) (assay: ELISA; 0.2 μg of antigen coated per well at 4°C overnight; purified sdAb at 1 μg/mL, RT 1 h; detection with HRP-conjugated protein A, absorbance at 450 nm). Settings: both partners purified.
T1 construct: Epithelial cell adhesion molecule (EpCAM), complete extracellular domain, bought; Commercial protein; no catalogue number, limits or tags printed; source: bought: Shanghai Bootech BioSci. and Technol
T1 sequence (P16422 24-265): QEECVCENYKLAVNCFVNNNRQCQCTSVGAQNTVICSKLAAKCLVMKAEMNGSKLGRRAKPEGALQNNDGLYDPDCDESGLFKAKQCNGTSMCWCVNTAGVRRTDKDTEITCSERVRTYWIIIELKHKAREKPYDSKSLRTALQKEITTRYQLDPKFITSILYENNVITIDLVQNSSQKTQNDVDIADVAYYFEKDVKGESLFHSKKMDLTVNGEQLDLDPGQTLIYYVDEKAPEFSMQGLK

Binder | binding result
B1 | binds
B2 | binds
B3 | binds
B4 | binds

The binders below were run against T2, EpCAM on DU145, PC3 and MCF-7 cancer cells (Homo sapiens (DU145, PC3, MCF-7), UniProt P16422) (assay: flow cytometry on cells; cells (1 × 10^6/mL) incubated with the sdAbs at 4°C for 1 h; detection with FITC-conjugated protein A; 293T and 3T3 cells as negative controls). Settings: one partner purified.
T2 construct: Epithelial cell adhesion molecule (EpCAM), endogenous on the three EpCAM+ human cancer cell lines DU145, PC3 and MCF-7; also called Epithelial cell adhesion molecule; source: endogenous, on DU145, PC3 and MCF-7 cells
T2 sequence (P16422 24-314): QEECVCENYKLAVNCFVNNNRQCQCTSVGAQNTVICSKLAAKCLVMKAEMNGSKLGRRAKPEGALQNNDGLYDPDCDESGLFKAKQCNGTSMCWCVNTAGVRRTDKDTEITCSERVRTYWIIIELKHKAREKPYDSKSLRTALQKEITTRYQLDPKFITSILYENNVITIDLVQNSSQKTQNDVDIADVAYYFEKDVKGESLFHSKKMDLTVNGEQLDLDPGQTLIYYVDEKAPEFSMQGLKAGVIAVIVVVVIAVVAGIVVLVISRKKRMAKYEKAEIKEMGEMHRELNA

Binder | binding result
B1 | binds
B5 | binds
B2 | binds
B3 | binds
B4 | binds
